According to patent publication US20260242478A1 (published 2026):

B1: Phage-3046 (peptide)
peptide: VDKVCRPMWMCAGF
notes: Peptide-180 library clone, tested as clonal phage supernatant (peptide fused to pIII of the bacteriophage)
B2: Phage-3048 (peptide)
peptide: PGHVCRPAWMCEGF
notes: as for B1
B3: Phage-3047 (peptide)
peptide: VGNMCVPEWMCVGF
notes: as for B1
B4: Phage-3039 (peptide)
peptide: VHNWCVPSWMCLGL
notes: Peptide-180 library clone, tested as clonal phage supernatant (pIII display)
B5: Phage-3045 (peptide)
peptide: VIGWCVPQWMCSGF
notes: as for B4
B6: Phage-3033 (peptide)
peptide: ELLMCRPAWMCDGF
notes: as for B4
B7: Phage-3044 (peptide)
peptide: SLAVCKPSWMCAGF
notes: as for B4
B8: Phage-3034 (peptide)
peptide: YAHICKPSWMCDGF
notes: as for B4
B9: Phage-3040 (peptide)
peptide: DYPLCRPEWMCMGF
notes: as for B4
B10: Phage-3036 (peptide)
peptide: IIPACVPPWMCSGF
notes: as for B4
B11: Phage-3035 (peptide)
peptide: LMPLCVPVWMCSGF
notes: as for B4
B12: Phage-3043 (peptide)
peptide: PTVYCKPEWMCTGF
notes: as for B4
B13: Phage-3037 (peptide)
peptide: PAVRCEPSWMCQGF
notes: as for B4
B14: Phage-3041 (peptide)
peptide: EHLRCVPDWMCVGF
notes: as for B4
B15: Phage-3038 (peptide)
peptide: VEPQCRPAWMCYGF
notes: as for B4
B16: Phage-3042 (peptide)
peptide: YTMVCRPAWMCQGF
notes: as for B4

Each binder was assayed against T1, PSMA Fab (006 PSMA Fab) (assay: phage ELISA; biotinylated PSMA Fab on neutravidin plate pre-incubated with PSMA antigen as competitor, clonal phage supernatant, anti-M13 HRP detection).
T1 construct: also called Anti-PSMA Fab; anti-PSMA Fab
Procedure: (§1) Clonal phage were harvested as crude supernatants and screened via standard ELISAs. […] Prior to the addition of clonal phage. wells were incubated with blocking buffer and PSMA antigen or blocking buffer alone. Without washing or aspirating, clonal phage supernatants were then added to the wells and incubated for a short time. Wells were then washed followed by detection of bound phage using a horse radish conjugated anti-M13 antibody.

Binder | Phage binding ELISA signal, Anti-PSMA Fab in the presence of PSMA antigen
B1 | 0.126
B2 | 0.106
B3 | 0.0878

The binders below were run against T2, Anti-PSMA Fab (006 PSMA Fab) (biotinylated (site not stated)) (assay: clonal phage ELISA, biotinylated PSMA Fab on neutravidin plates, anti-M13 HRP detection).
T2 construct: Biotinylated PSMA Fab captured on neutravidin coated plates

Binder | Phage binding ELISA signal, Anti-PSMA Fab
SEVMCVPQWMCNGF [Phage-3008] | 2.21
ALPMCEPFWMCTGF [Phage-3005] | 2.21
VQGVCVPSWMCTGF [Phage-3017] | 2.2
PAEWCIPVWMCTGF [Phage-3015] | 2.2
VMVECRPAWMCNGF [Phage-3006] | 2.21
VEPMCRPAWMCLGF [Phage-3004] | 2.21
MYHMCRPSWMCEGF [Phage-3007] | 2.21
STMMCVPPWMCMGF [Phage-3013] | 2.21
ANVACIPPWMCLGF [Phage-3016] | 2.2
AELLCVPTWMCMGF [Phage-3014] | 2.2
WEPVCKPDWMCNGF [Phage-3011] | 2.21
WWPSCVPEWMCAGL [Phage-3009] | 2.21
QWLRCEPEWMCIGF [Phage-3012] | 2.21
GMPYCVPEWMCSWL [Phage-3010] | 2.21

What follows are binders tested against T3, PSMA Fab (assay: clonal phage ELISA on captured PSMA Fab pre-incubated with PSMA antigen (competitor)).
T3 construct: Biotinylated and captured on neutravidin plates in the phage ELISA; also called Anti-PSMA Fab; 006 PSMA Fab
Procedure: as §1

Binder | Phage binding ELISA signal, Anti-PSMA Fab with PSMA antigen
B4 | 0.099
B5 | 0.113
B6 | 0.087
B7 | 0.0813
B8 | 0.108
B9 | 0.0813
B10 | 0.212
B11 | 0.106
B12 | 0.0869
B13 | 0.161
B14 | 0.0886
B15 | 0.0668
EGVVCIPEWMCKGF [Phage-3032] | 0.0637
B16 | 0.0964

The binders below were run against T4, PSMA Fab (006 PSMA Fab) (assay: clonal phage ELISA; biotinylated PSMA Fab on neutravidin plate, blocking buffer alone; anti-M13 HRP detection;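 also: crude clonal phage supernatants added without washing to wells pretreated with blocking buffer with or without PSMA antigen, short incubation, then washed before detecting bound phage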).
T4 construct: also called Anti-PSMA Fab; anti-PSMA Fab
Procedure: as §1

Binder | Phage binding ELISA signal, Anti-PSMA Fab
HHQLCKPLWMCEGF [Phage-3030] | 2.19
DSIMCRPAWMCAGF [Phage-3029] | 2.19
IESRCVPEWMCYGF [Phage-3019] | 2.2
WEILCKPEWMCSGF [Phage-3031] | 2.19
DMRRCEPIWMCVGF [Phage-3028] | 2.19
IERLCMPMWMCTGL [Phage-3024] | 2.19
VDVLCVPSWMCSWL [Phage-3026] | 2.19
EEKMCTPQWMCSGF [Phage-3020] | 2.2
HEAMCRPTWMCHGF [Phage-3018] | 2.2
VLPVCKPLWMCKGL [Phage-3027] | 2.19
PLVVCKPAWMCIGF [Phage-3025] | 2.19
GGLRCEPMWMCHGF [Phage-3021] | 2.2
DHLMCKPSWMCKGF [Phage-3022] | 2.19
TVPKCVPNWMCDWL [Phage-3023] | 2.19

These binders were tested against T3, PSMA Fab (assay: clonal phage ELISA on biotinylated PSMA Fab captured on neutravidin, anti-M13 HRP detection;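 also: crude clonal phage supernatants added to wells pretreated with PSMA antigen in blocking buffer or with blocking buffer only, then briefly incubated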).
Procedure: as §1

Binder | Phage binding ELISA signal, Anti-PSMA Fab
B4 | 2.18
B5 | 2.17
B6 | 2.18
B7 | 2.17
B8 | 2.18
B9 | 2.18
B10 | 2.18
B11 | 2.18
B12 | 2.17
B13 | 2.18
B14 | 2.17
B15 | 2.18
EGVVCIPEWMCKGF [Phage-3032] | 2.18
B16 | 2.17

What follows are binders tested against T4, PSMA Fab (006 PSMA Fab) (assay: clonal phage ELISA; biotinylated PSMA Fab on neutravidin plate, wells pre-incubated with PSMA antigen (competitor); anti-M13 HRP detection).
Procedure: as §1

Binder | Phage binding ELISA signal, Anti-PSMA Fab in presence of PSMA antigen
HHQLCKPLWMCEGF [Phage-3030] | 0.13
DSIMCRPAWMCAGF [Phage-3029] | 0.0945
IESRCVPEWMCYGF [Phage-3019] | 0.0726
WEILCKPEWMCSGF [Phage-3031] | 0.105
DMRRCEPIWMCVGF [Phage-3028] | 0.0954
IERLCMPMWMCTGL [Phage-3024] | 0.0679
VDVLCVPSWMCSWL [Phage-3026] | 0.0683
EEKMCTPQWMCSGF [Phage-3020] | 0.0688
HEAMCRPTWMCHGF [Phage-3018] | 0.0722
VLPVCKPLWMCKGL [Phage-3027] | 0.234
PLVVCKPAWMCIGF [Phage-3025] | 0.0979
GGLRCEPMWMCHGF [Phage-3021] | 0.122
DHLMCKPSWMCKGF [Phage-3022] | 0.0924
TVPKCVPNWMCDWL [Phage-3023] | 0.0864

Each binder was assayed against T1, PSMA Fab (006 PSMA Fab) (assay: phage ELISA; biotinylated PSMA Fab on neutravidin plate, clonal phage supernatant, anti-M13 HRP detection; blocking buffer alone).
Procedure: as §1

Binder | Phage binding ELISA signal, Anti-PSMA Fab
B1 | 2.17
B2 | 2.17
B3 | 2.17

Each binder was assayed against T2, Anti-PSMA Fab (006 PSMA Fab) (assay: clonal phage ELISA on PSMA Fab pre-incubated with PSMA antigen as competitor, anti-M13 HRP detection).
Procedure: as §1

Binder | Phage binding ELISA signal, Anti-PSMA Fab with PSMA antigen
SEVMCVPQWMCNGF [Phage-3008] | 0.0981
ALPMCEPFWMCTGF [Phage-3005] | 0.0628
VQGVCVPSWMCTGF [Phage-3017] | 0.0875
PAEWCIPVWMCTGF [Phage-3015] | 0.0732
VMVECRPAWMCNGF [Phage-3006] | 0.0636
VEPMCRPAWMCLGF [Phage-3004] | 0.0882
MYHMCRPSWMCEGF [Phage-3007] | 0.142
STMMCVPPWMCMGF [Phage-3013] | 0.0775
ANVACIPPWMCLGF [Phage-3016] | 0.109
AELLCVPTWMCMGF [Phage-3014] | 0.0679
WEPVCKPDWMCNGF [Phage-3011] | 0.08
WWPSCVPEWMCAGL [Phage-3009] | 0.129
QWLRCEPEWMCIGF [Phage-3012] | 0.212
GMPYCVPEWMCSWL [Phage-3010] | 0.0827
